Molecular target: human carcinoembryonic antigen (CEA) on MC-38-CEA-2 cells (human) (UniProt P06731)
Assay: FACS analysis of MC-38-CEA-2 tumor cells

UniProt P06731, sequence (P06731 35-702): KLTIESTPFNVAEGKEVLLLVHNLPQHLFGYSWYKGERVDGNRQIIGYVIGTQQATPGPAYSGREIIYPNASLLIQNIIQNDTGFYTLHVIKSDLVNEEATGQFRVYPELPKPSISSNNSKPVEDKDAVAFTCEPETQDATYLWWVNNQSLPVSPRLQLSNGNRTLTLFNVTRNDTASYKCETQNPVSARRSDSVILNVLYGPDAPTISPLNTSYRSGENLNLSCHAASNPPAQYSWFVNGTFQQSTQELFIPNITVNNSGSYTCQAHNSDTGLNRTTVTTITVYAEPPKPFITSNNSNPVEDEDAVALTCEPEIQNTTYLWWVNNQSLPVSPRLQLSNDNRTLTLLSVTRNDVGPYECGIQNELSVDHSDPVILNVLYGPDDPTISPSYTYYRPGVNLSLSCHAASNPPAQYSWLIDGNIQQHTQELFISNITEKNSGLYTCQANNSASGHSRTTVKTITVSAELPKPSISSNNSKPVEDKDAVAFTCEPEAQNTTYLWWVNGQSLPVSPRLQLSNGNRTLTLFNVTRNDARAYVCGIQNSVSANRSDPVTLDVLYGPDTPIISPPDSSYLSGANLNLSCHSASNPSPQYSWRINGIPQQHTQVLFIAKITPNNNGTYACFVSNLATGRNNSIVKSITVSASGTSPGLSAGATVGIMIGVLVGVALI

Which percent of cells positive (COL-1 binding) (% of the cells) does the source give for “murine IgG2a anti-CEA MAb, COL-1 (antibody)” here?
The percent of cells positive (COL-1 binding) (% of the cells) was over 85.

— patent US20040091995A1
